Biological target: fusin/CXCR4 receptor (human) (UniProt P61073)

## purified human SDF-1β chemokine, prepared in E. coli and containing an N-terminal methionine residue (from UniProt P48061) (ligand)
  anti-fusin antibody staining of Jurkat cells after 3-hour incubation at 37 degrees C, Median Channel (Median Channel): 22.3

— patent US6730296B1
